Substrate: O=P(O)(O)OC[C@H]1O[C@@H](Oc2ccccc2CO)[C@H](O)[C@@H](O)[C@@H]1O
Assay: purified protein
Assay type: biochemical, Streptococcus mutans
Settings: 0.1 M HEPES-NaOH pH 8.0, 2 mM NADP+, 298 K, SeMet-labelled enzyme 0.02 µM, substrate 10-2000 µM, 25.0 °C

B1: SmBgl (Streptococcus mutans UA159) (protein)
chain: MSKLPENFLWGGAVAAHQLEGGWQEGGKGISVADVMTAGRHGVAREITAGVLEGKYYPNHEAIDFYHHYKEDVKLFAEMGFKCFRTSIAWTRIFPKGDEAEPNEAGLQFYDDLFDECLKYGIEPVVTLSHFELPYHLVTEYGGFTNRKVIDFFVHFAEVCFRRYKDKVKYWMTFNEINNQANYQEDFAPFTNSGIVYKEGDDREAIMYQAAHYELVASARAVKIGHAINPNLNIGCMVAMCPIYPATCNPKDILMAQKAMQKRYYFADVHVHGFYPEHIFKYWERKAIKVDFTERDKKDLFEGTVDYIGFSYYMSFVIDAHRENNPYYDYLETEDLVKNPYVKASDWDWQIDPQGLRYALNWFTDMYHLPLFIVENGFGAIDQVEADGMVHDDYRIDYLGAHIKEMIKAVDEDGVELMGYTPWGCIDLVSAGTGEMRKRYGFIYVDKDDEGKGTLKRSPKLSFNWYKEVIASNGDDI
notes: full length, 477 residues, ~55 kDa, homodimer; His6 cut by TEV, SNA- left at N-terminus; E. coli BL21 (DE3) Magic, pMCSG7; SeMet-labelled protein in kinetic assays
Km: 1020 ± 70 µM

From PMC3605045, “GH1-family 6-P-β-glucosidases from human microbiome lactic acid bacteria” (Acta Crystallographica Section D: Biological Crystallography, 2013)
